# Data from patent US20190218553, “VON WILLEBRAND FACTOR (VWF)-TARGETING AGENTS AND METHODS OF USING THE SAME” (DUKE UNIVERSITY, published 2019).
# What was measured:
# [1] = target: T1, von Willebrand factor (VWF) (Homo sapiens, UniProt P04275 P04275:764-2813); assay: filter; Bmax 89%; 2 mM CaCl2, 37 C; conditions: tags: factor VIII free human purified VWF, Haematologic Technologies Inc; label: 5'-32P
# Procedure: (§1) Affinity constants (Kd values) were determined using double-filter nitrocellulose filter binding assays (Rusconi et al, Thromb. Haemost. $4:841-848 (2000)). All binding studies were performed in binding buffer F (20 mM HEPES, pH 7.4, 150 mM NaCl, 2 mM CaCl₂, and 0.01% BSA) at 37° C. Human purified VWF (factor VIII free) was purchased from Haematologic Technologies Inc. (Essex Junction, Vt.) and used in the double-filter nitrocellulose filter binding assay to determine the Kd of the aptamers. Briefly, RNA were end-labeled at the 5′ end with T4 polynucleotide kinase (New England Biolabs, Beverly, Mass.) and [γ³²P] ATP (Amersham Pharmacia Biotech, Piscataway, N.J.) (Fitzwater and Polisky, Methods Enzymol. 267:275-301 (1996)). End-labeled RNA was diluted in binding buffer F, heat denatured at 65° C. for 5 minutes, and subsequently equilibrated at 37° C. Direct binding was performed by incubating trace ³²P-RNA with varying concentrations of VWF protein in binding buffer F at 37° C. for 5 min. The fraction of the nucleic acid-protein complex which bound to the nitrocellulose membrane was quantified with a phosphorimager (Molecular Dynamics, Sunnyvale, Calif.). Non-specific binding of the radiolabeled nucleic acid was subtracted out of the binding such that only specific binding remained (Wong and Lohman, Proc. Natl. Acad. Sci. USA 90:5428-5432 (1993)).
# [2] = target: T1, von Willebrand factor (VWF); assay: filter; Bmax 21%; 2 mM CaCl2, 37 C; conditions: tags: factor VIII free, Haematologic Technologies Inc; label: 5'-32P
# Procedure: as §1
# [3] = target: T1, von Willebrand factor (VWF); assay: filter; Bmax 63%; 2 mM CaCl2, 37 C; conditions: tags: factor VIII free, Haematologic Technologies Inc; label: 5'-32P
# Procedure: as §1
# [4] = target: T1, von Willebrand factor (VWF); assay: filter; Bmax 72%; 2 mM CaCl2, 37 C; conditions: Haematologic Technologies Inc, label: 5'-32P
# Procedure: as §1
# [5] = target: T1, von Willebrand factor (VWF); assay: filter; Bmax 38%; 2 mM CaCl2, 37 C; conditions: tags: factor VIII free, Haematologic Technologies Inc; label: 5'-32P
# Procedure: as §1
# [6] = target: T1, von Willebrand factor (VWF); assay: filter; Bmax 25%; 2 mM CaCl2, 37 C; conditions: tags: factor VIII free, Haematologic Technologies Inc; label: 5'-32P
# Procedure: as §1
# [7] = target: T1, von Willebrand factor (VWF); assay: filter; Bmax 33%; 2 mM CaCl2, 37 C; conditions: tags: factor VIII free, Haematologic Technologies Inc; label: 5'-32P
# Procedure: as §1
# [8] = target: T1, von Willebrand factor (VWF); assay: filter; Bmax 65%; 2 mM CaCl2, 37 C; conditions: tags: factor VIII free, Haematologic Technologies Inc; label: 5'-32P
# Procedure: as §1
# [9] = target: T1, von Willebrand factor (VWF); assay: filter; Bmax 90%; 2 mM CaCl2, 37 C; conditions: tags: factor VIII free human purified VWF, Haematologic Technologies Inc; label: 5'-32P
# Procedure: as §1
# [10] = target: T1, von Willebrand factor (VWF); assay: filter; Bmax 53%; 2 mM CaCl2, 37 C; conditions: tags: factor VIII free, Haematologic Technologies Inc; label: 5'-32P
# Procedure: as §1
# [11] = target: T1, von Willebrand factor (VWF); assay: filter; Bmax 68%; 2 mM CaCl2, 37 C; conditions: tags: factor VIII free, Haematologic Technologies Inc; label: 5'-32P
# Procedure: as §1
# [12] = target: T1, von Willebrand factor (VWF); assay: filter; Bmax 70%; 20 mM HEPES pH 7.4, 150 mM NaCl, 2 mM CaCl2, 0.01% BSA, 37 C; conditions: tags: factor VIII free, Haematologic Technologies Inc; label: 5'-32P
# Procedure: as §1
binder,measurement,setting,value
"ACGAACUGCCCUCUAUUUCAUUUGACGCACAGACGU (ssRNA, 2'-F C2,U7,C9,C10,C11,U12,C26,C28,C34,U36; ribo A1,G3,G8,A25,G27,A29,G35; rest 2'-OMe; 3' idT) [T93 vrt1]",Kd,[1],0.8 nM
"CCGAACUGCCCUCAGCUAUUAUUAGCUGACGCACAGACGG (ssRNA, 2'-F C and U; 2'-OH A and G; 3' idT) [T30]",Kd,[2],39.3 nM
"ACGAACUGCCCUCGAUCGACGCACAGACGU (ssRNA, 2'-F C9,C10,C11,C20,C22; ribo G21; rest 2'-OMe; 3' idT) [T59 vrt26]",Kd,[1],18 nM
"ACGAACUGCCCUCGAUCGACGCACAGACGUACACA (ssRNA, 2'-F C and U; 2'-OH A and G; 3' idT) [T81]",Kd,[3],4.2 nM
"ACGAACUGCCCUCGAUCGACGCACAGACGUACACG (ssRNA, 2'-F C2,U7,C9,C10,C11,U12,C20,C22,C28,U30; ribo A1,G3,G8,A19,G21,A23,G29; rest 2'-OMe; 3' idT) [T84 vrt1]",Kd,[4]; tags: factor VIII free human purified VWF,1.7 nM
"ACGAACUGCCCUCAGCUACUUUCAUGUUGCUGACGCACAGACGU (ssRNA, mAfCmGrArAfCfUrGfCfCfCfUfCrArGfCfUrAfCfUfUfUfCrAfUrGfUfUrGfCfUrGrAfCrGfCrAfCrArGrAfCmGfU-idT (m=2'-OMe, f=2'-F, r=2'-OH)) [T25 vrt3]",Kd,[5],9.2 nM
"ACGAACUGCCCUCAGCUACUUUCAUGUUGCUGACGCACAGACGU (ssRNA, rAfCrGrArAfCfUrGfCfCfCfUfCrArGfCfUrAfCfUfUfUfCrAfUrGfUfUrGfCfUrGrAmCrGfCrAfCrArGrAfCrGfU-idT) [T25 vrt24]",Kd,[6],55 nM
"ACGAACUGCCCUCAGCUACUUUCAUGUUGCUGACGCACAGACGU (ssRNA, mAmCmGrArAfCfUrGfCfCfCfUfCrArGfCfUrAfCfUfUfUfCrAfUrGfUfUrGfCfUrGrAfCrGfCrAfCrArGrAmCmGmU-idT) [T25 vrt4]",Kd,[7],5.9 nM
"ACGAACUGCCCUCGAUCGACGCACAGACGU (ssRNA, mAmCmGmAmAmCfUmGfCfCfCmUmCmGmAmUmCmGmAfCmGfCrAmCmAmGmAmCmGfU-idT) [T59 vrt15]",Kd,[8],32.5 nM
"ACGAACUGCCCUCUUUUUUUUGACGCACAGACGU (ssRNA, 2'-F C2,U7,C9,C10,C11,U12,C24,C26,C32,U34; ribo A1,G3,G8,A23,G25,A27,G33; rest 2'-OMe; 3' idT) [T95 vrt1]",Kd,[9],0.9 nM
"ACGAACUGCCCUCGUAAGACGCACAGACGU (ssRNA, mAmCmGmAmAmCmUmGfCfCfCmUmCmGmUmAmAmGmAfCrGfCmAmCmAmGmAmCmGfUidT) [DTRI-011]",Kd,[4]; tags: factor VIII free,3.8 nM
"ACGAACUGCCCUCGAUCGACGCACAGACGU (ssRNA, mAfCmGmAmAmCfUmGfCfCfCfUmCmGmAmUmCmGmAfCmGfCmAmCmAmGmAfCmGfU-idT) [T59 vrt4]",Kd,[10],364 nM
"ACGAACUGCCCUCAGCUACUUAUGUUGCUGACGCACAGACGU (ssRNA, 2'-F C and U; 2'-OH A and G; 3' idT) [T37]",Kd,[11],10 nM
"VWF9.14 full length (ssRNA, 2'-F C and U; 2'-OH A and G) RNA: GGGAGGACGAUGCGGUGGACGAACUGCCCUCAGCUACUUUCAUGUUGCUGACGCACAGACGACUCGCUGAGGAUCCGAGA",Kd,[12],12 nM
